In the DeepSol protein solubility set:

Experiment: soluble on expression in E. coli; label from the status in PepcDB or PDB records

Soluble on expression in E. coli, not soluble:
MGSDKIHHHHHHMSYDLPRLTPDKDFKVPSACGVSGIMNTSGKRFSGSVIVESMALMRERGNGLGAGYAAYGIYPELKDLYCFHMLYDSDLDKKNAEEYIKDHYEIIESEPIPTRKNPHIKEVHILWRYFLKPKFIPEDMSEEDFVVSTVMFINEKINGAFVMSSGKNMGVFKGVGFPEDIADFYRIDEYKGYIWTAHNRFPTNTVGWWGGAHPFGILDWTVVHNGEISSYGINRRFLEAYGYKCTLMTDTEVVAYLVDLFMRRFGYSPQLTAKILAAPLWKDIDLMPEEERKLYTALRMNYGGALLNGPFAIIVANNNMMMGLNDRIKLRPLVAATKDDFLYIASEESAIRVVCPEPDEVWAPKAGDPVVGVLKSARKTQVVLEGENG
MGSDKIHHHHHHMSYWIQISNNVRYSNTFEPVCQPGATREERSTTDPGGVGTVPAIHGASNLNIIPIMRARRASITWPSEGLTRVPYALFQDEGVYADEQDAIFRGPNWSYLCLEAEVPNQGDFRSTFVGDAPVVVTRDTDGEIYAFENRCAHRGAMVCLEDQGNARDFSCVYHAWTYSLQGDLVGVAFKDGIDGKGGMKPDFCTGDHGLRKLRVATLHGLVFGSFSDDVPPLDEYLGEEIVERIARVLENRKPVVLGRFTQMLPNNWKLYFENVKDSYHASILHLFFTTFQLNRLSQRGGIIVDPSGGHHVSYSAVDHAAEAAAQRKATSDYADQKIRSESEHRLEDTSVLAGVDEFGDGVTLQILSVFPGFVLQQIQNAIAVRQILPRGTQQTELNWTYLGFEDDTPELREMRLRQSNLVGPAGYVSMEDGCVGGFVQRGIEGAGDGRSVIEMGGDSAESSASRVTEASIRGFWKAYRNAMGY
MGSDKIHHHHHHMTAGRIRIDEVIKDGEKIIAVSRTSPFYPDGKGGQLGDRGKIGPANVLKVKEKNGYILHYLDAHLEPGDYECEIDPARRKDIACQHTAQHILSAAFLKVADLETVSFHMGERVSTIDLNAPFVLEDVLEEAEDLANEVVRSCERVEILEIEKEEAEKMNLRKLPNVEGKVRVVKIGDFDVTACGGFHVENTGEIGLIKIVDTEKVKKVLTRIYFTAGDRALKDYREKDKLLKSLSRVLTTSTKELLKRAENLLEEVKEKSAKLDKLSEKYAEILSKVAEPEKVGKYYLYHFSGTPEEMKYLPKFLADRKDTIVLLEHPDRIEIVSNWIDCRKIFEKLKDQLNVEGGSSQKRAVITANSASRIVEKLREILKWF
MGSDKIHHHHHHMTAQFDDATLTKRLAKGTGEILKGVRNVGLLRGRELGEAGDDLAQNWIARVLEQHRPDDGFLSEEAADNPERLGKDRVWIIDPLDGTKEFATGRQDWAVHIALVENGVPTHAAVNLPDLGVVFHSSEVRAVGGPYAKKIAISHNRPPAVATHIAESLGFTAEPMGSAGAKAMHVLLGDYDAYIHAGGQYEWDSAAPVGVSLAAGLHCSRLDGTPLNYNNKDTYLPDVLICRPELADDILTMAAAFREENGSY
MGSDKIHHHHHHMTDITVAETSAPDTIKAFEERLMQVSDTLPKRLKQCADYVGANKDRIAVSTVAEMAEGAGVQPSAFMRFCQIFGFSGFSEMQKLFRDSLVGGWPDYSTRLHHLRETASGSPSALLAEFVEAGRVSLEGLLQTVDPQLLEQAVACLSTAGMIHIVGLRRSFPVASYIAYAFEKMAVPAMLHSGVGKLESQHAIRDGDVVLAITFAPYSTETLDLVEQVSARGISVVAITDTVVNPLRKLGTITLSVAEVDFGAFRSLSATLCLAIALSVAVGTARQQD
MGSDKIHHHHHHMTDRLFTETLLAAVGEDLLRTRLSEEFIRVDLGAETVAPLLTFDALSELLSTHQLEPPRLRLHRAGAPVPLDNYTEVGEASGVQRRLVRPEALYAQLRQGASLVLDGIDRIHPPIRAAADDLMRLVHERVQVNLYLIWGDSHGFNTHWDDHDTFIVQVAGTKHWQVHGQGTRPYPMKEDIDHSHQPPEGTVWEGTVRAGEVLHVPRGWWHTVTGTGDVSMHLTFGFTRATGVDWARWLVDRLYEVEFARRDLPRFATPEERRKHQHELLRHLMDLAEQHGLDEFLTDRDSRFPRRQSFSLPWAVDGATPQPDTVVEFTPILPSALRDEGQKVALTVAGRRYTFAKAAQPLLEVLVDARVLTVAELAERAGAEVETAAALARVLVQHHLVLLRSTS
MGSDKIHHHHHHMTERIDFTKSEQYTLSIRLSADGFSFSIYNPLTDNDFCFVPHPVNTGYSMTANLKDMLTKTEALKYPYKRVNILYDSPRFTPVPLELFEDEQMDTIFYHNFPKAKGNNEIVLCNVLGRSNVVILFAMDKHTHLLLTEHFPTARFFSTASPLTEYFARKSRLGNSRKLYTYIREQQMEVFCFDKGNLLLINSFPCKQTTDRVYYLLYVWQQLNYNQERDELHLTGILKDKEELLKELRNYLRQVFVISPKAEFNRSEISKIEEIPFDMQTLLLCE
MGSDKIHHHHHHMTETERLALASLLYQLADDDFLYAYRGSEWLGLAPHIEEDVASSSIAQDSMGHAAMYYQLLEEIGEGKADALAHVRLAHERKNSVLVERVNGPGYYMENPEYDWAYAVVRNYCYTLAKKVRIDSLKKSSYTPLAALAVKVNMELYYHLLHWQTWFTQLYQSTETARQKMDAALERVLADFGDLFDYGEASELIDEMRLIEGQGILLDRWYQALTPVLVDLNVTLPEMKMTYNGRNGEHSPDLNDALSTLGEVYLLDQSAVW
MGSDKIHHHHHHMTFDANDVVRRLGARLKMRHLMLLLQIQQHGSLTRVAEHMASSQPAVTNALSELESMFGTPLFERTSRGMRPTALGSVVLERARAMLKDLDHLAREMEAVAAGHAAHLHIGVIPFISGQMLSAALKRLQSRMERRLTVTIHEGTSDQLLLQLKDHSVDLVIGRASSAIDLGQVSFEVLYQQQPRMIASRRLAAKLARTKLDWQKLHALDWILGAPHTPMREQVTDLFLSAGIAPPVPIVESYSSKLIGEMIASSDDAVSIVPADIAEEMVRIAGVAIVPYSLVWTLPPIALFTRAGESHAPTRDLLVQALREICRETYVEVPR
MGSDKIHHHHHHMTHPLLAIDNLSIAFRQQGETQTVVHNLSLEVAVGETLALVGESGSGKSISALSVLRLLPTPPASYPSGDIRFHGQSLLHADEATLRGVRGNRIAMIFQEPMVSLNPLHTLEKQLYEVLSLHRGMRKQAARGEILDCLERVGIRQAPRRLADYPHQLSGGERQRVMIAMALLTRPELLIADEPTTALDVSVQAQILQLLRELKQELNMGLLFITHNLSIVRQLADRVAVMQNGRCVEHNDCRALFSAPAHPYTQRLLDSEPDGEPVPLAADAPVLLQADDLKVAFPVRKGILRRVVDHHRVVNSLSFQLRAGETLGLVGESGSGKSTTGLALLRLIPSGGKITFAGQPIQGRNRRQLLPLRRQMQVVFQDPNSSLNPRLTAQQIIEEGLRVHQPTLTAAEREQAVILAMQEVGLDPASRQRYPAAFSGGQRQRIAIARALIVKPQLIVLDEPTSSLDKTVQAQILNLLKALQRKHQLAYIFISHDLGVVRALCHQVMVLRQGEVVEQGECKSVFSAPRHEYTRQLLALS
MGSDKIHHHHHHMTIDDFYSFITLYKTRNISDAAIALNITQSALSKRLRNMQQELDTALISTRNKRQLTITESGEVFFRYAQTLTAQYQLLQQELLDYRELRRGTIQIGSVPVMAQYGLASKMSQFMQDYPQINFSLAELEGADLLTQLQHQSFDLGILRDVQSQQLNHSQFDAVTLTDDELKVVLPSDHPLAHQTSIQLPDLRPFDVVTLSPGSGVYERISERYQQAGFTPNIRFSTPHIETLLAMIAHTDRVTFLFAKSVAPFMTADFVMRPFTDPIISHLQLVYPHGTLSPAAQRFIHYLTD
MGSDKIHHHHHHMTIHISTAPCCWGVDDVKNPYLPAWRDVLGEASEAGYRGVELGPYGYLPLDPAVVSAALGENRLHVVAGTVFDDLVTLTNLPSLLRQTHDICALLKQLPPIDKEPGQRFAGPYLVIIDWGHEERDYAAGHSELAQRLDDGAWQTMMEHIRAICQIAWHEYGIRPVIHPHAGGYIEFADELARLVDDIPDDVAGLCLDTGHLYYAGMDPAASLRTYADRLDYIHFKDIDQSVFDDVMKQRIKFFDACARGVMCPIGRGVIDYPSLYRLIQTLGYEGYITVEQERDPRNANGSLEDVRSSRTYLANVGF
MGSDKIHHHHHHMTIRQTKEANLLISERADFQVTAKIEQMAKGYIDRWHQHPWHQIAFPFEGILQTKVADSQFVIPHSGMLFIPANTPHESFVVTDTKFIGIYLNPQFQNHFPLTAKAISVTPFLRELVLHINHGVSNSIVSEEELSKLVAVLIDQISSGESYQMKLLLPSDRRLMIIFKALMTDPQLNTKLSDWAKQVGASERTLSRLFTKELGMTFPLWRQHLRLVSSLNLLETNLSVQEIAFKVGYNADSSFIYAFKKLFQQTPQQYRHSGFKLSSRINDK
MGSDKIHHHHHHMTIYSWNALYLGNAGDIDSYEGDLYAEGASNILGSYGSPGDPLYDHIVDVVVNDADDDTDINSDNYDFWSPDAMTVDGVAHTLDSGVVYNATLTYADGSTANITAVVIQTTDGDLYLAPEMTANDDWVAMEAKAIVSVSLDSVSVDTTYIAANRQQTNFICFAAGTRIATPKGARPVETLAVGDLVQTLDHGPQPIRWIGTRRVGLATQLLSHGVAPVVIPAHSFAPSIPTHPLLLSQQHRVLLRSRIARRMYGSDEILIAARRLTGLHGIALRPATGPVRYIHFALDRHEIVFANGLPAETLLLGAEVERVLGTDVFTQIEQSQNRGAIALAMRPARPIVEGRRARSFVERLRNRACRHALANPIKVPQNRVTGLISLVSPPG
MGSDKIHHHHHHMTKETATISQLQQDIINNSQKGFPLTSQPYKTIAEQLADVNIVTNELEVFQAIDDLNSQEVLSRVGPVFDHKKAGASTLAALAVPAKDLDKIAGIVNQFDQVNHNYGREHVYNLWFVVTASDMVALNSTIVNIELLTGLPVLVLPMEASYHIDLAFSINVTGIESPTSNQENRPVTFDNNDTTSLTDIEKTALRRAIEKGLPTHLFPYQAIAQQLALSEQQVLMQISLWQEEGLIRRFGLVIKHRKLGYDANAMVVWNIPNENMDAIALKLAKCAPVSLCYQRPRRLPDWPYNLFCMIHGTDRSLVLQQISQITEQLGLESIEKDVLFSFKAYKQHGARYFKTNSKKAKTNNISAGKTENNNDMKKQGQAHG
MGSDKIHHHHHHMTKLYEPFYRLTIELTECEREIIGSRPFKRLAHLHHYGAAALRTPVTHSRYEHTIGVWSLTAHFFPSDQLLRLVALLHDIGHLPFSHAVEQPLGFNHHLLTERLIESQEVAKILKKHGFIPQDVIRRLNENTPVSNQEKLLSLDHLDSFLRDTTLAGTCSLIPHESLGRLSVRGNGIETDEETALLLASCIVKDHELFLDPFNLAMDALLAEAITLYMADKPLVSMENIPHMTDDEVLTLLRGSWNKKVHAHLKLLFSQQPTLVQTDDESSAKLTVTVRKVYEDRPLIRHGTAKGREMVEKKLAELQELKGRFSFVY
MGSDKIHHHHHHMTLLNMSNVQIMDVVQALSLSIERGERVGLIGESGSGKTITAMSILRLIPSSGSIVFDGADIQGLSEKQMCALRGKRISMVFQEPMTALDPLMKVGTQISHAIRIHSSVSRAQARKKADALLHSVELDPELRSRYPHELSGGQRQRILIAMALAHDPDLLICDEPTTALDVTSQKAIVDLILRLVAERGTGLLFITHDLGLVARTCERVLVMREGRIIESGTVEDVLKNPREDYTAMLVQASTLAPAPQVALSDDEVLHIDNVTKKYRGTTAVEDVTLTVHRGERLGIVGGSGSGKTTLLKMISGLSSPTSGHINTEGSMRIVFQDPMQSLDPHMSIADIVSEPLGHRDLKAVERALEEVGLDAGMMNRLPHEFSGGQRQRISIARALVSSPDILLADEPVSALDVSVRAKVLALLDRLVSERHLTMLFVSHDLHVVRSLCTTVAVMREGKIVEYGPTEDVFNNPQHEYTKALIEAIPSL
